Measured values reported in publication PMC12930380, “Overcoming Ligand Discovery Challenges: Developing Peptide-Based Tracers for SPSB2” (ACS Chemical Biology, 2025).
Bridge positions count the residues as written; N and C are the ends. Square brackets hold non-standard residues; d marks the D form. Primed or numbered codes have the meaning given here. Ends that are not written are not given here. Peptide text beside a SMILES is read from it. * marks the point of attachment. X1 = O=C(CCC1=[N+]2C(=Cc3ccc(-c4ccc[nH]4)n3[B-]2(F)F)C=C1)*; PEG4′ = tetra(ethylene glycol) spacer; PEG4 = NCCOCCOCCOCCOCCC(=O)O; PEG4″ = not defined here

Tests used:
[1] = molecular target: T1, hSPSB2^SPRY (Homo sapiens, UniProt Q99619); experiment: Surface plasmon resonance single cycle kinetics; assay type: binding; conditions: immobilized His-hSPSB2^SPRY; for SPR binding behaviour (qualitative): no KD determined; for koff / kon: mean ± SD (n = 3); for koff: read-out: SPR koff (dissociation rate constant); for kon: read-out: SPR kon (association rate constant)
T1 construct: Human His6-SPSB2^SPRY (86–219) was expressed as a fusion construct; made in house; host or cells: Escherichia coli BL21(DE3)
T1 sequence (Q99619 26-219 limits assumed): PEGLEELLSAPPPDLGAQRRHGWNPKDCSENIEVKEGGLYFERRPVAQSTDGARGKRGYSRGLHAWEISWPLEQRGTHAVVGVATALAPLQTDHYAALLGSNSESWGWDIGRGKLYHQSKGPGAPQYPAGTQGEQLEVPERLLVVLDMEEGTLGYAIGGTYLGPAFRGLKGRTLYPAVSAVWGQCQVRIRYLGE
Protocol: Surface Plasmon Resonance experiments were conducted on a Biacore T200 instrument with a Series S Sensor Chip CM5 (Cytiva) and 10 mM HEPES pH 7.5, 150 mM NaCl, 0.5 mM TCEP, 0.05% Tween20 and 2% DMSO for the running buffer. His-hSPSB2^SPRY was diluted to 5 μg/mL in Acetate pH 5.5 and immobilized at 10 μL/min to reach 400–700 RU response levels on Flow-channel (FC) 2–4 for triplicates. Immobilization was performed via standard amine coupling procedure by injecting a mixture of 483 mM EDC and […] for activation with a subsequent injection of 1 M ethanolamine for deactivation. FC1 was used as a reference surface without protein-injection. Kinetic titration experiments were performed using a single-cycle kinetics procedure, with five peptide concentrations (0.8 nM to 1 μM) injected for 150 s each at a flow rate of 30 μL/min, followed by a dissociation phase of 600 s. After each peptide titration, multiple buffer injections were performed to reach a stable baseline. Solvent correction and blank injections were also included. After referencing, blank subtraction, and solvent correction, the data were analyzed using the Biacore T200 evaluation software. Sensorgrams with overlaid fit were replotted using GraphPad Prism version 8.0.1.

[2] = molecular target: T1, hSPSB2^SPRY; experiment: Differential scanning fluorimetry (thermal shift); assay type: binding; conditions: DSF, 50 μM peptide, 5 μM His-hSPSB2^SPRY, 30 mM HEPES pH 7.5, 5% DMSO, mean ± SD (n = 4); for Mean Tm: DMSO control 43.2 ± 0.1
Protocol: For peptide screening, 50 μM peptide was added to 5 μM His-hSPSB2^SPRY diluted in buffer containing 30 mM HEPES pH 7.5, 100 mM NaCl, 1 mM TCEP, 5x SYPRO Orange and 5% DMSO as quadruplicates. Thermal shift analyses were carried out using a QuantStudio 5 Real-Time PCR System (Applied Biosystems) with a temperature gradient ranging from 25 to 95 °C at an increase of 0.05 °C/s. Data analysis was performed by fitting a Boltzmann sigmoidal curve to the raw values using the Protein Thermal Shift software (Applied Biosystems).

[3] = system: HCT116 cells; experiment: CellTiter-Glo cytotoxicity assay; assay type: cell-based; conditions: 0.39 μM to 50 μM, 2 h incubation, 37 °C, n = 6
Protocol: For cytotoxicity measurements, 10 μL HCT116 cells in Dulbecco’s Modified Eagle Medium (DMEM) were seeded at 2*10^5 cells/mL into a white 384-well-flat-bottom plate. […] Ten μL CellTiter-Glo 2.0 Reagent (Promega) was added to each well, followed by an incubation of 10 min at RT. Luminescence was measured, using a PheraSTAR FSX plate reader. Data was normalized to cells treated with 1% DMSO (100% survival control) and digitonin (0% survival control), then plotted using GraphPad Prism version 8.0.1.

[4] = molecular target: Human His6-SPSB2^SPRY (86–219) (human) (UniProt Q99619); experiment: SPR
[5] = molecular target: Human His6-SPSB2^SPRY (86–219) (human) (UniProt Q99619); experiment: differential scanning fluorimetry
[6] = molecular target: T2, C-terminally Nanoluc-tagged human full length SPSB2 (human, UniProt Q99619 1-263); experiment: FRET or BRET; NanoBRET displacement in intact HCT116 cells transfected with SPSB2-NanoLuc; 30 nM cyclic TAT tracer, cyclic TAT peptide titrated 6 nM to 50 uM, triplicates; conditions: one partner purified
T2 construct: also called SPRY domain-containing SOCS box protein 2; source: HCT116, transfected, in intact cells; not shown: NanoLuc, C-terminal, kept
T2 sequence (looked up): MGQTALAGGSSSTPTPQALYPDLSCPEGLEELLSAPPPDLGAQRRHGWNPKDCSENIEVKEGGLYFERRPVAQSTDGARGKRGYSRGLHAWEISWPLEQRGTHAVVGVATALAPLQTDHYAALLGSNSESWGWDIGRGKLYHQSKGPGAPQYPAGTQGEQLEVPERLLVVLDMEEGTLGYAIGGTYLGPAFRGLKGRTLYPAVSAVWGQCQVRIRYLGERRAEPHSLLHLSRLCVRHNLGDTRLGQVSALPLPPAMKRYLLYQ

[7] = molecular target: T2, C-terminally Nanoluc-tagged human full …; experiment: FRET or BRET; NanoBRET displacement in intact HCT116 cells transfected with SPSB2-NanoLuc; 20 nM cyclic TAT tracer, cyclic TAT peptide titrated 6 nM to 50 uM, triplicates (biological replicate); conditions: one partner purified
[8] = molecular target: Human His6-SPSB2^SPRY (86–219) (human) (UniProt Q99619); experiment: differential scanning fluorimetry; 50 μM peptide added to 5 μM His-hSPSB2^SPRY; 30 mM HEPES pH 7.5, 100 mM NaCl, 1 mM TCEP, 5x SYPRO Orange, 5% DMSO; 25 to 95 °C; quadruplicates
[9] = molecular target: T3, C-terminally Nanoluc-tagged human full length SPSB2 (human, UniProt Q99619 1-263); experiment: FRET or BRET; NanoBRET tracer titration, apparent KD; 39 pM - 2.5 μM tracer titrated to intact HCT116 cells transfected with SPSB2-NanoLuc; 2 h at 37 °C; conditions: one partner purified
T3 construct: source: HCT116, transfected (FuGENE HD), in intact or digitonin-permeabilized cells; not shown: NanoLuc, C-terminal, kept
T3 sequence (looked up): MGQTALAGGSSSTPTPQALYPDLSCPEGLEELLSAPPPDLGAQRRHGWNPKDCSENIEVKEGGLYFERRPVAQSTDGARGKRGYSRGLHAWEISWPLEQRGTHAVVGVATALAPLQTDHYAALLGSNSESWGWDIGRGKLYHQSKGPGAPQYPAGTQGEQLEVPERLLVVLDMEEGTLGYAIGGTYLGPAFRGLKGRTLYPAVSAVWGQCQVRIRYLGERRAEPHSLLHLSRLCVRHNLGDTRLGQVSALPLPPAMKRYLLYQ

[10] = molecular target: T3, C-terminally Nanoluc-tagged human full …; experiment: FRET or BRET; NanoBRET tracer titration, apparent KD; 39 pM - 2.5 μM tracer titrated to HCT116 cells transfected with SPSB2-NanoLuc and permeabilized with 25 μM digitonin; conditions: one partner purified

CC[C@H](C)[C@H](NC(=O)[C@H](CC(=O)O)NC(=O)[C@@H](NC(=O)CNC(=O)[C@H](CO)NC(=O)CNC(=O)[C@@H]1CSSC[C@H](NC(=O)CCOCCOCCOCCOCCN)C(=O)N[C@@H](Cc2ccc(O)cc2)C(=O)NCC(=O)N[C@@H](CCCNC(=N)N)C(=O)N[C@@H](CCCCN)C(=O)N[C@@H](CCCCN)C(=O)N[C@@H](CCCNC(=N)N)C(=O)N[C@@H](CCCNC(=N)N)C(=O)N[C@@H](CCC(N)=O)C(=O)N[C@@H](CCCNC(=N)N)C(=O)N[C@@H](CCCNC(=N)N)C(=O)N[C@@H](CCCNC(=N)N)C(=O)N1)C(C)C)C(=O)N[C@@H](CC(N)=O)C(=O)N[C@@H](CC(N)=O)C(=O)N[C@@H](CC(N)=O)C(=O)O [Cyclic TAT peptide] (H-[PEG4]CYGRKKRRQRRRCGSGVDINNN-OH; disulfide 2-14; N-terminus and C-terminus assumed)
SPR binding behaviour (qualitative) [1]: non 1:1 binding interaction
ΔTm at 50 µM [2]: 8.1 ± 0.1 °C
Mean Tm [2]: 51.4 ± 0.1 °C
Impact on cell viability (CellTiter-Glo, qualitative) [3]: no impact on cell viability at any tested concentration

CC[C@H](C)[C@H](NC(=O)[C@H](CC(=O)O)NC(=O)[C@@H](NC(=O)CNC(=O)[C@H](CO)NC(=O)CNC(=O)[C@@H]1CSSC[C@H](NC(=O)CCOCCOCCOCCOCCNC(=O)CCC2=[N+]3C(=Cc4ccc(-c5ccc[nH]5)n4[B-]3(F)F)C=C2)C(=O)N[C@@H](Cc2ccc(O)cc2)C(=O)NCC(=O)N[C@@H](CCCNC(=N)N)C(=O)N[C@@H](CCCCN)C(=O)N[C@@H](CCCCN)C(=O)N[C@@H](CCCNC(=N)N)C(=O)N[C@@H](CCCNC(=N)N)C(=O)N[C@@H](CCC(N)=O)C(=O)N[C@@H](CCCNC(=N)N)C(=O)N[C@@H](CCCNC(=N)N)C(=O)N[C@@H](CCCNC(=N)N)C(=O)N1)C(C)C)C(=O)N[C@@H](CC(N)=O)C(=O)N[C@@H](CC(N)=O)C(=O)N[C@@H](CC(N)=O)C(=O)O [Cyclic TAT tracer] ({X1-PEG4}-CYGRKKRRQRRRCGSGVDINNN-OH; disulfide 1-13)
Concentration leading to reduced cell survival (CellTiter-Glo) [3]: above 10 μM

CC[C@H](C)[C@H](NC(=O)[C@H](CC(=O)O)NC(=O)[C@@H](NC(=O)CNC(=O)[C@H](CO)NC(=O)CNC(=O)[C@H](CC(=O)O)NC(=O)CNC(=O)[C@H](CCCNC(=N)N)NC(=O)CCOCCOCCOCCOCCN)C(C)C)C(=O)N[C@@H](CC(N)=O)C(=O)N[C@@H](CC(N)=O)C(=O)N[C@@H](CC(N)=O)C(=O)O [Linear RGD peptide] (H-[PEG4]RGDGSGVDINNN-OH; N-terminus and C-terminus assumed)
koff [1]: 0.032 s⁻¹
kon [1]: 200000 M⁻¹ s⁻¹
ΔTm at 50 µM [2]: 10.9 ± 0.2 °C
Mean Tm [2]: 54.1 ± 0.2 °C

CC[C@H](C)[C@H](NC(=O)[C@H](CC(=O)O)NC(=O)[C@H](CCCCN)NC(=O)[C@H](CCC(=O)O)NC(=O)[C@H](CCC(=O)O)NC(=O)[C@@H](N)CCCCN)C(=O)N[C@@H](CC(N)=O)C(=O)N[C@@H](CC(N)=O)C(=O)N[C@@H](CC(N)=O)C(=O)N[C@H](C(=O)N[C@@H](CCCCN)C(=O)N[C@@H](CCCCN)C(=O)N[C@H](C(=O)O)[C@@H](C)O)C(C)C [iNOS peptide, reference compound] (H-KEEKDINNNVKKT-OH)
koff [1]: 0.0024 s⁻¹
kon [1]: 2.9e+06 M⁻¹ s⁻¹
ΔTm at 50 µM [2]: 14.1 ± 0.1 °C

PEG4-YGRKKRRQRRRGSGVDINNN [Linear TAT peptide]
SPR binding behaviour (qualitative) [1]: non 1:1 binding interaction
ΔTm [2]: 10.6 ± 0.1 °C
Mean Tm [2]: 53.8 ± 0.1 °C

KEEKDINNNVKKT [iNOS peptide]
Kd [4]: 0.8 nM
koff [4]: 0.0024 s⁻¹
kon [4]: 2.9e+06 M⁻¹ s⁻¹
ΔTm [5]: 14.1 °C

[PEG4′]RGDGSGVDINNN [linear RGD peptide]
Kd [4]: 162 nM
koff [4]: 0.032 s⁻¹
kon [4]: 200000 M⁻¹ s⁻¹
ΔTm [5]: 10.9 °C

B1: cyclic TAT peptide (PEG4-CYGRKKRRQRRRCGSGVDINNN) (peptide)
peptide: [PEG4′]CYGRKKRRQRRRCGSGVDINNN
modifications: disulfide 2-14
notes: also called cyclic TAT peptide variant; source: synthetic peptide (custom synthesized by Synpel Chemical, GeneCust and GenScript Biotech)
EC50 [6]: ~386 nM
EC50 [7]: ~200 nM

[PEG4′]YGRKKRRQRRRGSGVDINNN [linear TAT peptide]
ΔTm [8]: 10.6 °C

B2: Cyclic TAT tracer (peptide)
peptide: {BODIPY 576/589-PEG4″}-CYGRKKRRQRRRCGSGVDINNN
modifications: disulfide 1-13
notes: also called fluorophore-tagged cyclic TAT tracer; source: synthetic peptide (custom synthesized by Synpel Chemical, GeneCust and GenScript Biotech)
Kd [9]: 86 nM
Kd [10]: 346 nM

[PEG4′]CYGRKKRRQRRRCGSGVDINNN (disulfide 2-14) [cyclic TAT peptide]
ΔTm [8]: 8.1 °C
